{"source": "patent US10100317B2", "about": "“Compositions of matter that reduce pain, shock, and inflammation by blocking linoleic acid metabolites and uses thereof” (Board of Regents of the University of Texas System, priority 2012, dated 2018)", "key": {"TRPV1 in the spinal cord": {"system": "TRPV1 in the spinal cord", "conditions": "completely reversible by a TRPV1 antagonist; cited from earlier work"}, "[1]": {"system": "LA-evoked nofifensive behaviors", "assay": "LA-evoked nocifensive behaviors after capsazepine pretreatment (FIG. 3B)", "type": "in vivo", "conditions": "pretreatment before linoleic acid"}, "[2]": {"system": "TRPV1 knock-out (KO) mice", "assay": "LA-triggered nocifensive behaviors in TRPV1 knock-out versus wild type mice (FIG. 3C)", "type": "in vivo", "conditions": "TRPV1 KO mice compared to wild type mice"}, "normal rats": {"system": "normal rats", "assay": "Spontaneous nocifensive behaviors after linoleic acid injection in normal rats (FIG. 3A)", "type": "in vivo, rat"}, "[3]": {"assay": "ELASA (ELISA-like) plate screening of aptamers against 9-HODE", "type": "binding", "conditions": "for Trial 1 Abs 405 nm: ELASA trial 1; for Trial 3 Abs 405 nm: ELASA trial 3; for Affinity ranking in ELASA plate screening: 9-HODE target, three trials, done in triplicate", "experimental": "(§1) To evaluate, screen, and rank aptamers based on affinity against their cognate HODE isomers, two different approaches are used. The first involved the use of Corning Costar Universal Bind™ microplates (No. 2503) for ultraviolet (UV) immobilization of 200 ng/well of unlabeled HODES to the plate's surface (Bruno et al., 2008 and 2009) using 0.2 Joules/cm^2 in a UV crosslinker oven for 15 minutes. The second involved streptavidin (SAv)-coated microwell strips (Nunc, Inc. Catalogue #436020) in which 400 ng of the biotinylated-13-HODE are immobilized for 30 minutes at RT with gentle mixing in 200 μl of PBS per well.\n(§2) Plates or wells are decanted and washed three times in 250 μl of 1×BB. Each of the different 5′-biotinylated aptamers raised against the target is dissolved in 1×BB at 1.00 nmole per 100 microliters and applied to their corresponding plate wells for 1 hour at RT with gentle mixing on an orbital shaker. The plate is decanted and washed three times in 250 μl of 1×BB for at least 5 minutes per wash with gentle mixing. One hundred μl of a 1:2,000 dilution of SAv-peroxidase from a 5 mg/ml stock solution in 1×BB is added per well for 30 minutes at RT with gentle mixing. The plate is decanted and washed three times with 250 μl of 1×BB per well as before.\n(§3) One hundred μl of ABTS (2,2′-azino-bis(3-ethylbenzthiazoline-6-sulphonic acid) substrate with stabilized hydrogen peroxide (Kirkegaard Perry Laboratories, Inc., Gaithersburg, Md.) is added per well for 10 minute at RT. Various deletion control wells without biotinylated aptamers or SAv-peroxidase are set up and evaluated to establish background levels as well. Finally absorbance is quantified using a microplate reader with 405 nm optical filter.\n(§4) These aptamers were: H9-3/19F and B13-9R for the 9-HODE and biotinylated 13-HODE targets respectively and they proceeded into animal testing."}, "[4]": {"assay": "ELASA (ELISA-like) plate screening of aptamers against 13-HODE / biotinylated 13-HODE", "type": "binding", "conditions": "for Trial 2 Abs 405 nm: ELASA trial 2; for Trial 2 Abs 405 nm / Trial 3 Abs 405 nm / Trial 1 Abs 405 nm: 13-HODE / biotinylated 13-HODE aptamers, absorbance 10-15 minutes after final addition of ABTS substrate; for Trial 3 Abs 405 nm: ELASA trial 3; for Trial 1 Abs 405 nm: ELASA trial 1; for Affinity ranking in ELASA plate screening: biotinylated 13-HODE target, three trials, done in triplicate", "experimental": "as §1, §2, §3, §4"}, "[5]": {"system": "rat hindpaws inflamed with complete Freund's adjuvant (CFA)", "assay": "Pain responses in rat hindpaws inflamed with complete Freund's adjuvant (CFA)", "type": "in vivo", "conditions": "local (hindpaw) injection, FIG. 2"}, "[6]": {"system": "cultured capsaicin-sensitive neurons", "assay": "Patch clamp electrophysiology of cultured capsaicin-sensitive neurons", "type": "cell-based"}, "[7]": {"assay": "SPR analysis (Biacore X100) with immobilized 13(S)-HODE-Biotin", "type": "binding", "conditions": "CM5 chip, 1×HBS-EP+ buffer, aptamer 20-80 μM, contact 90 s, dissociation 600 s; read-out: dissociation constant, KD", "experimental": "SPR Analysis of H9-3/19F Aptamer and B13-9R Aptamer with 13(S)-HODE-Biotin\n(§5) 13(S)-HODE-Biotin was immobilized on a CM5 sensor chip utilizing biotin-streptavidin chemistry. Various concentrations of H9-3/19F aptamer (SEQ ID. NO. 84) were flowed through the Biacore X100 with 1×HBS-EP+ running buffer at a flow rate of 30 μl/min and allowed a contact time with the surface-bound ligand of 90 seconds, followed by a dissociation time set at 600 seconds. The following concentrations of aptamer were used: 20 μM, 40 μM, 60 μM and 80 μM.\nas §5, with “B13-9R” for “H9-3/19F”, “67)” for “84)”"}, "[8]": {"conditions": "9-HODE aptamers, absorbance 10-15 minutes after final addition of ABTS substrate"}}, "note": "“Also recorded” adds a separate entry of the source."}
{"molecule": "9-hydroxyoctadecadienoic acid [Aptamer 9-HODE]", "values": [{"measurement": "tactile allodynia", "setting": "TRPV1 in the spinal cord", "value": "results in tactile allodynia"}]}
{"molecule": "COc1cc(CNC(=O)CCCC/C=C/C(C)C)ccc1O", "note": "[capsaicin]", "values": [{"measurement": "tactile allodynia", "setting": "TRPV1 in the spinal cord", "value": "results in tactile allodynia"}]}
{"molecule": "Oc1cc2c(cc1O)CN(C(=S)NCCc1ccc(Cl)cc1)CCC2", "note": "[capsasepine]", "values": [{"measurement": "LA-evoked nocifensive behaviors", "setting": "[1]", "value": "significantly reduced"}]}
{"molecule": "CCCCC/C=C\\C/C=C\\CCCCCCCC(=O)O", "note": "[linoleic acid, cis, cis-9,12-octadecadienoic acid]", "values": [{"measurement": "LA-triggered nocifensive behaviors", "setting": "[2]", "value": "significantly reduced"}, {"measurement": "spontaneous nocifensive behaviors", "setting": "normal rats", "value": "does not produce a significant increase"}]}
{"molecule": "H9-3/19R: DNA aptamer clone, 9-HODE target (nucleic acid, DNA, backbone not given here, DNA aptamer clone, 9-HODE target) DNA: ATCCGTCACACCTGCTCTGCATGGCCATCCAGATTAGTCCTGCAGCACATTCGGTGGTGTTGGCTCCCGTAT", "values": [{"measurement": "Trial 1 Abs 405 nm", "setting": "[3]; [8]", "value": 1.571}]}
{"molecule": "B13-1a/4/6/15/17/19/20R: DNA aptamer clone, biotinylated 13-HODE target (nucleic acid, DNA, backbone not given here, DNA aptamer clone, biotinylated 13-HODE target) DNA: ATCCGTCACACCTGCTCTCGAGTATAAGGGGGAGTTGCATAACGCTAAACTTTGTGGTGTTGGCTCCCGTAT", "values": [{"measurement": "Trial 2 Abs 405 nm", "setting": "[4]", "value": 1.595}]}
{"molecule": "H13-1/2-4/6-8/14-18/20F: DNA aptamer clone, 13-HODE target (nucleic acid, DNA, backbone not given here, DNA aptamer clone, 13-HODE target) DNA: ATACGGGAGCCAACACCACAAAGTTTAGCGTTATGCAACTCCCCCTTATACTCGAGAGCAGGTGTGACGGAT", "values": [{"measurement": "Trial 2 Abs 405 nm", "setting": "[4]", "value": 1.199}, {"measurement": "Trial 3 Abs 405 nm", "setting": "[4]", "value": 1.387}]}
{"molecule": "H9-2/4-6/8a/9b/14/20F: DNA aptamer clone, 9-HODE target (nucleic acid, DNA, backbone not given here, DNA aptamer clone, 9-HODE target) DNA: ATACGGGAGCCAACACCACAAAGTTTAGCGTTATGCAACTCCCCCTTATACTCGAGAGCAGGTGTGACGGAT", "values": [{"measurement": "Trial 3 Abs 405 nm", "setting": "[3]; [8]", "value": 1.249}]}
{"molecule": "B13-10bR: DNA aptamer clone, biotinylated 13-HODE target (nucleic acid, DNA, backbone not given here, DNA aptamer clone, biotinylated 13-HODE target) DNA: ATCCGTCACACCTGCTCTGCGGACAGCGGTTGCGCATATATCGTGGCAGTGGGCTGGTGTTGGCTCCCGTAT", "values": [{"measurement": "Trial 2 Abs 405 nm", "setting": "[4]", "value": 1.214}]}
{"molecule": "B13-8F: DNA aptamer clone, biotinylated 13-HODE target (nucleic acid, DNA, backbone not given here, DNA aptamer clone, biotinylated 13-HODE target) DNA: ATACGGGAGCCAACACCAGCGAAGCCAAAACTGGTCGGGCCGACGGGATTCGTTAGAGCAGGTGTGACGGAT", "values": [{"measurement": "Trial 1 Abs 405 nm", "setting": "[4]", "value": 1.490}]}
{"molecule": "B13-12R: DNA aptamer clone, biotinylated 13-HODE target (nucleic acid, DNA, backbone not given here, DNA aptamer clone, biotinylated 13-HODE target) DNA: ATCCGTCACACCTGCTCTGCCATTGAATCTCATATGGTGCTCGAGTAGCTGGTGTGGTGTTGGCTCCCGTAT", "values": [{"measurement": "Trial 3 Abs 405 nm", "setting": "[4]", "value": 1.310}]}
{"molecule": "H13-12F: DNA aptamer clone, 13-HODE target (nucleic acid, DNA, backbone not given here, DNA aptamer clone, 13-HODE target) DNA: ATACGGGAGCCAACACCATGTTACATCAACTGCATGAAGACGAGGAATGTGATGAGAGCAGGTGTGACGGAT", "values": [{"measurement": "Trial 1 Abs 405 nm", "setting": "[4]", "value": 1.442}]}
{"molecule": "5′-ATACGGGAGCCAACACCACCGAATGTGCTGCAGGACTAATCTGGATGGCCATGCAGAGCAGGTGTGACGGAT-3′ (nucleic acid, DNA, backbone not given here, DNA aptamer for the OLAM 9-HODE) DNA: ATACGGGAGCCAACACCACCGAATGTGCTGCAGGACTAATCTGGATGGCCATGCAGAGCAGGTGTGACGGAT", "values": [{"measurement": "pain responses to mechanical stimuli", "setting": "[5]", "value": "significant reduction in pain responses"}, {"measurement": "pain responses to thermal stimuli", "setting": "[5]", "value": "significant reduction in pain responses"}, {"measurement": "block of capsaicin response (selectivity)", "setting": "[6]; capsaicin itself / TRPV1 directly", "value": "does not block capsaicin itself"}, {"measurement": "activation of cultured capsaicin-sensitive neurons", "setting": "[6]; pre-treatment with aptamer, 9-HODE response, preliminary data, FIG. 1", "value": "blocks activation"}, {"measurement": "Affinity ranking in ELASA plate screening", "setting": "[3]", "value": "highest affinity; also recorded: top two to three strongest absorbance signals"}, {"measurement": "Affinity ranking in ELASA plate screening", "setting": "[3]; listed as SEQ ID NO. 84", "value": "highest binding affinity"}, {"measurement": "Trial 1 Abs 405 nm", "setting": "[3]; [8]", "value": 2.081}, {"measurement": "Trial 2 Abs 405 nm", "setting": "[3]; ELASA trial 2, 9-HODE aptamers, absorbance 10-15 minutes after final addition of ABTS substrate", "value": 1.648}, {"measurement": "Trial 3 Abs 405 nm", "setting": "[3]; [8]", "value": 1.640}, {"measurement": "Kd", "setting": "[7]", "value": 0.129, "unit": "nM"}]}
{"molecule": "5′-ATCCGTCACACCTGCTCTGGGGGGGGAAGCTCGTGGTATAAGGGGCGTTGAGGTGGTGTTGGCTCCCGTAT-3′ (nucleic acid, DNA, backbone not given here, DNA aptamer for the OLAM 13-HODE) DNA: ATCCGTCACACCTGCTCTGGGGGGGGAAGCTCGTGGTATAAGGGGCGTTGAGGTGGTGTTGGCTCCCGTAT", "values": [{"measurement": "Kd", "setting": "[7]", "value": 2.56, "unit": "nM"}, {"measurement": "Trial 1 Abs 405 nm", "setting": "[4]", "value": 1.549}, {"measurement": "Trial 2 Abs 405 nm", "setting": "[4]", "value": 1.885}, {"measurement": "Trial 3 Abs 405 nm", "setting": "[4]", "value": 1.964}, {"measurement": "Affinity ranking in ELASA plate screening", "setting": "[4]", "value": "highest affinity; also recorded: top two to three strongest absorbance signals"}, {"measurement": "Affinity ranking in ELASA plate screening", "setting": "[4]; listed as SEQ ID NO. 67", "value": "highest binding affinity"}]}
